The supplement of paper PMC9112550, “Optimization of the antimicrobial peptide Bac7 by deep mutational scanning” (BMC Biology, 2022)

System: Escherichia coli TOP10
Experiment: shrunken log2 fold change of peptide-encoding DNA abundance (4.5 h post-induction vs induction); higher = less antimicrobial activity (less host growth inhibition)
Details: time post-induction: 4.5 h; library: site-saturation at positions 5, 18, 19, 20
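Further: peptides expressed intracellularly from a pBAD plasmid library in pooled LB shake-flask culture, induced with 0.3% L-arabinose, DNA abundance read by NGS, three biological replicates, DESeq2 with apeglm shrinkage.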

Sequence	shrunken log2 fold change
RRIRTRPPRLPRPRPRPQQSPRP	-0.0133
RRIRTRPPRLPRPRPRPQRHPRP	0.19
RRIRTRPPRLPRPRPRPQRSPRP	0.309
RRIRTRPPRLPRPRPRPQWQPRP	0.0822
RRIRTRPPRLPRPRPRPQWRPRP	0.207
RRIRTRPPRLPRPRPRPQYEPRP	0.00772
RRIRTRPPRLPRPRPRPRCKPRP	0.0432
RRIRTRPPRLPRPRPRPRCQPRP	0.113
RRIRTRPPRLPRPRPRPRCYPRP	-0.429
RRIRTRPPRLPRPRPRPRDEPRP	0.146
RRIRTRPPRLPRPRPRPRDHPRP	0.0565
RRIRTRPPRLPRPRPRPRDTPRP	-0.0276
RRIRTRPPRLPRPRPRPREEPRP	0.368
RRIRTRPPRLPRPRPRPRFDPRP	0.332
RRIRTRPPRLPRPRPRPRFWPRP	0.0622
RRIRTRPPRLPRPRPRPRHCPRP	-0.0723
RRIRTRPPRLPRPRPRPRIWPRP	0.104
RRIRTRPPRLPRPRPRPRKGPRP	0.333
RRIRTRPPRLPRPRPRPRNFPRP	0.172
RRIRTRPPRLPRPRPRPRNVPRP	-0.128
RRIRTRPPRLPRPRPRPRPAPRP	0.555
RRIRTRPPRLPRPRPRPRPLPRP	0.295
RRIRTRPPRLPRPRPRPRPYPRP	-0.223
RRIRTRPPRLPRPRPRPRQCPRP	0.153
RRIRTRPPRLPRPRPRPRTLPRP	-0.121

Sequence	shrunken log2 fold change
RRIRTRPPRLPRPRPRPRTMPRP	0.0616
RRIRTRPPRLPRPRPRPRTVPRP	0.00464
RRIRTRPPRLPRPRPRPRVGPRP	0.364
RRIRTRPPRLPRPRPRPRVLPRP	0.242
RRIRTRPPRLPRPRPRPRVSPRP	0.0622
RRIRTRPPRLPRPRPRPRWSPRP	0.0798
RRIRTRPPRLPRPRPRPRYGPRP	-0.284
RRIRTRPPRLPRPRPRPRYSPRP	0.0915
RRIRTRPPRLPRPRPRPSATPRP	0.273
RRIRTRPPRLPRPRPRPSCYPRP	-0.654
RRIRTRPPRLPRPRPRPSEEPRP	0.0771
RRIRTRPPRLPRPRPRPSEWPRP	-0.0236
RRIRTRPPRLPRPRPRPSFWPRP	0.277
RRIRTRPPRLPRPRPRPSGAPRP	0.251
RRIRTRPPRLPRPRPRPSHLPRP	-0.411
RRIRTRPPRLPRPRPRPSHQPRP	0.185
RRIRTRPPRLPRPRPRPSHRPRP	-0.463
RRIRTRPPRLPRPRPRPSICPRP	-0.899
RRIRTRPPRLPRPRPRPSIYPRP	-0.513
RRIRTRPPRLPRPRPRPSKEPRP	-0.598
RRIRTRPPRLPRPRPRPSKFPRP	-0.624
RRIRTRPPRLPRPRPRPSKKPRP	-0.174
RRIRTRPPRLPRPRPRPSNIPRP	-0.329
RRIRTRPPRLPRPRPRPSPDPRP	-0.331
RRIRTRPPRLPRPRPRPSQNPRP	-0.00631

Sequence	shrunken log2 fold change
RRIRTRPPRLPRPRPRPSQRPRP	0.0168
RRIRTRPPRLPRPRPRPSRDPRP	-0.139
RRIRTRPPRLPRPRPRPSRHPRP	-0.481
RRIRTRPPRLPRPRPRPSSYPRP	-0.0381
RRIRTRPPRLPRPRPRPSTYPRP	-0.4
RRIRTRPPRLPRPRPRPSVKPRP	-0.177
RRIRTRPPRLPRPRPRPSVNPRP	-1.91
RRIRTRPPRLPRPRPRPSVPPRP	-0.0459
RRIRTRPPRLPRPRPRPSWFPRP	-0.343
RRIRTRPPRLPRPRPRPSWKPRP	-0.124
RRIRTRPPRLPRPRPRPSWQPRP	-0.073
RRIRTRPPRLPRPRPRPTAVPRP	-0.133
RRIRTRPPRLPRPRPRPTCGPRP	-0.0204
RRIRTRPPRLPRPRPRPTCHPRP	-0.405
RRIRTRPPRLPRPRPRPTCKPRP	-0.047
RRIRTRPPRLPRPRPRPTDCPRP	0.0577
RRIRTRPPRLPRPRPRPTDHPRP	-0.283
RRIRTRPPRLPRPRPRPTDWPRP	0.218
RRIRTRPPRLPRPRPRPTFEPRP	-0.0371
RRIRTRPPRLPRPRPRPTFKPRP	-0.227
RRIRTRPPRLPRPRPRPTFYPRP	-0.0485
RRIRTRPPRLPRPRPRPTGGPRP	0.164
RRIRTRPPRLPRPRPRPTGPPRP	0.48
RRIRTRPPRLPRPRPRPTGSPRP	0.0948
RRIRTRPPRLPRPRPRPTHTPRP	0.0425

Sequence	shrunken log2 fold change
RRIRTRPPRLPRPRPRPTIFPRP	-0.2
RRIRTRPPRLPRPRPRPTIKPRP	-0.051
RRIRTRPPRLPRPRPRPTKYPRP	-0.612
RRIRTRPPRLPRPRPRPTLKPRP	0.00476
RRIRTRPPRLPRPRPRPTMYPRP	-0.82
RRIRTRPPRLPRPRPRPTNFPRP	-0.0921
RRIRTRPPRLPRPRPRPTNHPRP	-0.622
RRIRTRPPRLPRPRPRPTNKPRP	-0.444
RRIRTRPPRLPRPRPRPTPMPRP	0.276
RRIRTRPPRLPRPRPRPTQMPRP	0.451
RRIRTRPPRLPRPRPRPTRDPRP	0.136
RRIRTRPPRLPRPRPRPTTRPRP	0.223
RRIRTRPPRLPRPRPRPTTSPRP	0.0942
RRIRTRPPRLPRPRPRPTVLPRP	-0.0554
RRIRTRPPRLPRPRPRPTVMPRP	-0.152
RRIRTRPPRLPRPRPRPTVNPRP	-0.217
RRIRTRPPRLPRPRPRPTWEPRP	0.95
RRIRTRPPRLPRPRPRPTWTPRP	-0.136
RRIRTRPPRLPRPRPRPVCAPRP	0.266
RRIRTRPPRLPRPRPRPVDCPRP	-0.142
RRIRTRPPRLPRPRPRPVDYPRP	-0.172
RRIRTRPPRLPRPRPRPVEYPRP	-0.122
RRIRTRPPRLPRPRPRPVGEPRP	-0.0292
RRIRTRPPRLPRPRPRPVHGPRP	-0.0733
RRIRTRPPRLPRPRPRPVHKPRP	-0.285

Sequence	shrunken log2 fold change
RRIRTRPPRLPRPRPRPVHYPRP	0.0226
RRIRTRPPRLPRPRPRPVIAPRP	-0.189
RRIRTRPPRLPRPRPRPVIKPRP	-0.237
RRIRTRPPRLPRPRPRPVKTPRP	0.12
RRIRTRPPRLPRPRPRPVNGPRP	0.0311
RRIRTRPPRLPRPRPRPVNPPRP	-0.0713
RRIRTRPPRLPRPRPRPVNRPRP	-0.0356
RRIRTRPPRLPRPRPRPVQFPRP	-0.0192
RRIRTRPPRLPRPRPRPVQPPRP	0.238
RRIRTRPPRLPRPRPRPVQTPRP	0.216
RRIRTRPPRLPRPRPRPVQWPRP	0.116
RRIRTRPPRLPRPRPRPVTEPRP	0.0394
RRIRTRPPRLPRPRPRPVTMPRP	-0.289
RRIRTRPPRLPRPRPRPVWVPRP	-0.0284
RRIRTRPPRLPRPRPRPVYCPRP	-0.301
RRIRTRPPRLPRPRPRPVYNPRP	-0.239
RRIRTRPPRLPRPRPRPVYTPRP	-1.09
RRIRTRPPRLPRPRPRPWCDPRP	-0.596
RRIRTRPPRLPRPRPRPWCPPRP	-0.139
RRIRTRPPRLPRPRPRPWDKPRP	-0.0249
RRIRTRPPRLPRPRPRPWFIPRP	-0.64
RRIRTRPPRLPRPRPRPWFYPRP	-0.54
RRIRTRPPRLPRPRPRPWGNPRP	-0.602
RRIRTRPPRLPRPRPRPWHAPRP	0.093
RRIRTRPPRLPRPRPRPWIIPRP	-0.228

Sequence	shrunken log2 fold change
RRIRTRPPRLPRPRPRPWKEPRP	-0.0407
RRIRTRPPRLPRPRPRPWKHPRP	-0.529
RRIRTRPPRLPRPRPRPWMKPRP	0.0159
RRIRTRPPRLPRPRPRPWMRPRP	0.556
RRIRTRPPRLPRPRPRPWQMPRP	-0.0135
RRIRTRPPRLPRPRPRPWQYPRP	0.0126
RRIRTRPPRLPRPRPRPWSCPRP	-0.29
RRIRTRPPRLPRPRPRPWSLPRP	-0.673
RRIRTRPPRLPRPRPRPWTDPRP	-0.17
RRIRTRPPRLPRPRPRPWTYPRP	-0.00992
RRIRTRPPRLPRPRPRPWVLPRP	-0.0462
RRIRTRPPRLPRPRPRPWVVPRP	-0.0414
RRIRTRPPRLPRPRPRPWYMPRP	-0.0891
RRIRTRPPRLPRPRPRPYAGPRP	-0.14
RRIRTRPPRLPRPRPRPYCKPRP	-0.129
RRIRTRPPRLPRPRPRPYCPPRP	-0.821
RRIRTRPPRLPRPRPRPYCTPRP	1.36
RRIRTRPPRLPRPRPRPYDCPRP	-0.304
RRIRTRPPRLPRPRPRPYDYPRP	-0.00193
RRIRTRPPRLPRPRPRPYEAPRP	-0.966
RRIRTRPPRLPRPRPRPYEGPRP	-0.0536
RRIRTRPPRLPRPRPRPYHDPRP	-0.13
RRIRTRPPRLPRPRPRPYHEPRP	-0.0196
RRIRTRPPRLPRPRPRPYILPRP	-0.0244
RRIRTRPPRLPRPRPRPYKNPRP	-0.937
